Results taken from US9632088B2, “Methods and compositions for gamma-secretase assay” (MEMORIAL SLOAN-KETTERING CANCER CENTER, priority 2010, dated 2017).
Where a chain is given by its changes, count along the chain named. Numbers in names are those of the source.

What was measured:
E280A PS1 γ-secretase = target: T1, E280A PS1 γ-secretase (Homo sapiens, UniProt P49768, E280A); experiment: In vitro N1-Sb1 γ-secretase assay, membrane of N2a cells expressing E280A PS1; assay type: biochemical, murine; conditions: E280A PS1, N2a membrane
T1 construct: total membrane
Method: (§1) HeLa membrane fraction was isolated from HeLa-S3 cells (National Cell Culture Center). The cell pellet was resuspended in Buffer A (50 mM MES, 150 mM KCl, 5 mM CaCl2, 5 mM MgCl2) and lysed by passage through a French Press. N2a cells (murine neuroblastoma cells) over-expressing wild-type PS1, or mutants M146L or E280A, were obtained from Dr. Sangram Sisodia (University of Chicago, Chicago, Ill.). These cells were maintained in 50% Dulbecco's modified Eagle's medium high glucose, 50% Opti-Mem Reduced Serum Media, and 10% fetal calf serum. Cultured cells were pelleted by centrifugation and resuspended in hypotonic buffer (40 mM Tris, pH 7.4, 10 mM NaCl, 1 mM EDTA, and 0.5 mM DTT) for 20 minutes before being lysed with a dounce homogenizer. Nuclear debris from the HeLa and N2a cells were pelleted at 3000 rpm for 30 minutes. The resulting supernatants were ultracentrifuged at 100,000×g for 1 hour. The pellet that contained total cell membrane was resuspended in Buffer A. Mouse brains overexpressing knock-in wild type or M146V PS1 (gift from Dr. Hui Zheng, Amylin Pharmaceuticals, San Diego, Calif.) were homogenized with dounce homogenizer. The cell lysate was centrifuged at 3000 rpm for 30 minutes. The supernatants were ultracentrifuged at 100,000×g for 1 hour. Protein concentration was determined with the DC Protein Assay Kit according to the manufacturer's instructions (Bio-Rad, Hercules, Calif.).
(§2) An in vitro γ-secretase assay using a novel recombinant APP-derived substrate (termed “Sb4”) is disclosed in co-pending application U.S. Ser. No. 12/776,141. In the present assay based on a Notch-derived substrate, N1-Sb1 was incubated with the cell membrane fraction, prepared as described above, in the presence of 0.25% CHAPSO and 1×PIPES buffer (50 mM PIPES, pH 7.0, 150 mM KCl, 5 mM CaCl2, 5 mM MgCl2. The reaction was incubated at 37° C. for 2 hours. The Perkin Elmer AlphaScreen™ detection system was employed to assay for Notch cleavage. AlphaScreen (PerkinElmer Life and Analytical Sciences, Shelton, Conn.) is a bead based non-radioactive Amplified Luminescent Proximity Homogeneous Assay (ALPHA). When a biological interaction brings the beads together, a cascade of chemical reactions acts to produce a greatly amplified signal. Specifically, upon laser excitation, a photosensitizer in the “Donor” bead converts ambient (triplet) oxygen to the more reactive singlet state. The singlet state oxygen molecules diffuse into the solvent, and may react with a thioxene derivative in the Acceptor bead if nearby, generating chemiluminescence at 370 nm that further activates fluorophores contained in the same bead. The fluorophores subsequently emit light at 520-620 nm. In the absence of a specific biological interaction, the singlet state oxygen molecules produced by the donor bead go undetected without the close proximity of the acceptor bead. As a result no fluorescence signal at 520-620 nm is produced.
(§3) In the present system, antibody SM320, Protein A-conjugated acceptor beads, and Streptavidin-conjugated donor beads (PerkinElmer) were added to the reaction at a final concentration of 0.2 μg/ml, 2.5 μg/ml and 5 μg/ml, respectively (diagrammed in FIG. 5A). The reaction was incubated in the dark at room-temperature for 4 hours. The ALPHA signal was detected using the Envision plate reader (Perkin Elmer). The reactions were excited at 680 nm and signal was detected at 615 nm.
(§4) The effects of PS1 FAD mutations on Notch cleavage were determined using the new γ-secretase assay described in Example 2. The activities of two PS1 FAD mutations—PS1 M146L and E280A were compared against wild-type PS1 (WT), which has been previously studied (25). Total membrane was isolated from N2a cells that stably express WT, M146L, or E280A mutants. N1-Sb1 was incubated with these membranes and the resulting cN1-Sb1 was detected with SM320. […] The M146L and E280A mutants had 40% and 14% activity remaining, respectively, compared to the activity of the wild type (FIG. 7A). […]

[1] = target: T2, γ-secretase (HeLa membrane) (Homo sapiens, UniProt P49768); experiment: In vitro N1-Sb1 γ-secretase assay (ALPHA detection with SM320), HeLa membrane; assay type: biochemical
T2 construct: host or cells: HeLa-S3 cells, total membrane fraction
Method: as §1
An in vitro γ-secretase assay using a novel recombinant APP-derived substrate (termed “Sb4”) is disclosed in co-pending application U.S. Ser. No. 12/776,141. In the present assay based on a Notch-derived substrate, N1-Sb1 was incubated with the cell membrane fraction, prepared as described above, in the presence of 0.25% CHAPSO and 1×PIPES buffer (50 mM PIPES, pH 7.0, 150 mM KCl, 5 mM CaCl2, 5 mM MgCl2. The reaction was incubated at 37° C. for 2 hours. The Perkin Elmer AlphaScreen™ detection system was employed to assay for Notch cleavage. AlphaScreen (PerkinElmer Life and Analytical Sciences, Shelton, Conn.) is a bead based non-radioactive Amplified Luminescent Proximity Homogeneous Assay (ALPHA). When a biological interaction brings the beads together, a cascade of chemical reactions acts to produce a greatly amplified signal. Specifically, upon laser excitation, a photosensitizer in the “Donor” bead converts ambient (triplet) oxygen to the more reactive singlet state. […] As a result no fluorescence signal at 520-620 nm is produced.
(§5) In the present system, antibody SM320, Protein A-conjugated acceptor beads, and Streptavidin-conjugated donor beads (PerkinElmer) were added to the reaction at a final concentration of 0.2 μg/ml, 2.5 μg/ml and 5 μg/ml, respectively (diagrammed in FIG. 5A). […] The ALPHA signal was detected using the Envision plate reader (Perkin Elmer). The reactions were excited at 680 nm and signal was detected at 615 nm.
HeLa membrane was incubated with N1-Sb1 substrate in the presence of 0.25% CHAPSO. The γ-secretase cleavage product (cN1-Sb1) was detected by the PerkinElmer proximity assay (ALPHA) using the SM320 antibody, Protein A-conjugated acceptor-beads (which bind SM320) and streptavidin-conjugated donor-beads (which bind biotin) (FIG. 5A). cN1-Sb1 levels in DMSO-treated assay was 10-fold higher than in the presence of the inhibitor L-685,458 (L458; structure shown below)-treated assay. […]

M146L PS1 γ-secretase = target: T3, M146L PS1 γ-secretase (Homo sapiens, UniProt P49768, M146L); experiment: In vitro N1-Sb1 γ-secretase assay, membrane of N2a cells expressing M146L PS1; assay type: biochemical, murine; conditions: M146L PS1, N2a membrane
T3 construct: total membrane
Method: as §1, §2, §3, §4

[2] = target: T4, wild-type PS1 γ-secretase (Homo sapiens, UniProt P49768); experiment: In vitro N1-Sb1 γ-secretase assay, membrane of N2a cells expressing wild-type PS1; assay type: biochemical, murine; conditions: for reactivity (rate of γ-secretase cleavage) compared with WT substrate: WT PS1, N2a membrane
T4 construct: total membrane
Method: as §1, §2, §3, §4

[3] = target: T5, WT PS1 γ-secretase (knock-in mouse brain) (Mus musculus, UniProt P49769); experiment: In vitro N1-Sb1 γ-secretase assay, knock-in wild type PS1 mouse brain membrane; assay type: biochemical
T5 construct: Total membrane from these mouse brains was isolated; tissue gift from Dr. Hui Zheng; host or cells: mouse brain (PS1 knock-in), total membrane
Method: as §1, with “The pellet that contained total cell membrane was resuspended in Buffer A. Mouse brains overexpressing knock-in wild type or M146V PS1 (gift from Dr. Hui Zheng, Amylin Pharmaceuticals, San Diego, Calif.) were homogenized with dounce homogenizer. The cell lysate was centrifuged at 3000 rpm for 30 minutes. The supernatants were ultracentrifuged at 100,000×g for 1 hour.” left out
(§6) An in vitro γ-secretase assay using a novel recombinant APP-derived substrate (termed “Sb4”) is disclosed in co-pending application U.S. Ser. No. 12/776,141. […] As a result no fluorescence signal at 520-620 nm is produced.
as §5
(§7) Mouse brain specimens were obtained that either expressed knock-in wild type PS1 or the M146V PS1 mutation (25, 26). […] The cN1-Sb1 cleavage product was detected with the new in-vitro γ-secretase assay of Example 2. […]

[4] = test system: M146V PS1 γ-secretase (knock-in mouse brain); experiment: In vitro N1-Sb1 γ-secretase assay, knock-in M146V PS1 mouse brain membrane; assay type: biochemical
Method: as §1, §6, §5, §7

[5] = read-out: Km for N1-Sb1 cleavage

B1: N1-Sb1: biotinylated recombinant substrate: human Notch1 fragment (residues 1733-1812) with AviTag (protein)
chain: PAQLHFMYVAAAAFVLLFFVGCGVLLSRKRRRQHGQLWFPEGFKVSEASKKKRREPLGEDSVGLKPLKNASDGALMDDNQN
modifications: biotinylated; Notch substrate N1Sb1 (NTM2)
notes: biotinylated recombinant substrate: human Notch1 fragment (residues 1733-1812) with AviTag
With B1 the “N1-Sb1 cleavage activity remaining compared to wild type PS1” value (E280A PS1 γ-secretase) was 14%, the “Vmax for N1-Sb1 cleavage” value (E280A PS1 γ-secretase) was 49 U/μg/min and the Km (E280A PS1 γ-secretase; [5]) was 0.05 µM. The “Vmax of N1-Sb1 cleavage” value ([1]; arbitrary units) was 38 Unit/μg/min, the Km ([1]; read-out: apparent Km of N1-Sb1 cleavage by γ-secretase) was 0.15 ± 0.03 µM and the “N1-Sb1 cleavage activity remaining compared to wild type PS1” value (M146L PS1 γ-secretase) was 40%. For the same molecule, the “Vmax for N1-Sb1 cleavage” value (M146L PS1 γ-secretase) was 163 U/μg/min, the Km (M146L PS1 γ-secretase; [5]) was 0.049 µM and the “Vmax for N1-Sb1 cleavage” value ([2]; PS1 wild-type, N2a membrane) was 293 U/μg/min. For the same molecule, the Km ([2]; PS1 wild-type, N2a membrane, read-out: Km for N1-Sb1 cleavage) was 0.07 µM, the “Vmax for N1-Sb1 cleavage” value ([3]; WT PS1 mouse brain membrane) was 52 U/μg/min and the Km ([3]; WT PS1 mouse brain membrane, read-out: Km for N1-Sb1 cleavage) was 0.06 µM. For the same molecule, the “Notch (N1-Sb1) cleavage activity compared to wild-type PS1” value ([4]; M146V PS1 mouse brain membrane) was “less activity”, the “Vmax for N1-Sb1 cleavage” value ([4]; M146V PS1 mouse brain membrane) was 40 U/μg/min and the Km ([4]; M146V PS1 mouse brain membrane, read-out: Km for N1-Sb1 cleavage) was 0.048 µM.

B2: C1752A: N1-Sb1 substrate with P2 residue Cys 1752 substituted with Ala (protein, UniProt P46531 1733-1812, looked up, variant C1752A)
chain: QLHFMYVAAAAFVLLFFVGAGVLLSRKRRRQHGQLWFPEGFKVSEASKKKRREPLGEDSVGLKPLKNASDGALMDDNQNE
modifications: biotinylated AviTag
notes: N1-Sb1 substrate with P2 residue Cys 1752 substituted with Ala
B2 was tested, and the “reactivity (rate of γ-secretase cleavage) compared with WT substrate” value (“reactivity … compared with WT substrate” for short) (E280A PS1 γ-secretase) was 20-30%, the “reactivity … compared with WT substrate” value (M146L PS1 γ-secretase) was 20-30% and the “reactivity … compared with WT substrate” value [2] was 20-30%.

B3: C1752M: N1-Sb1 substrate with P2 residue Cys 1752 substituted with Met (protein, UniProt P46531 1733-1812, looked up, variant C1752M)
chain: B2 chain with A20M
modifications: biotinylated AviTag
notes: N1-Sb1 substrate with P2 residue Cys 1752 substituted with Met
For B3, the “reactivity … compared with WT substrate” value (E280A PS1 γ-secretase) was 185.5±7.4%, the “reactivity … compared with WT substrate” value (M146L PS1 γ-secretase) was 166.4±6.1% and the “reactivity … compared with WT substrate” value [2] was “no effect”. For the same molecule, the “reactivity … compared with WT substrate” value ([3]; WT PS1 knock-in mouse brain) was “no effect” and the “reactivity … compared with WT substrate” value ([4]; M146V knock-in PS1 mouse brain) was 127.4±3.7%.

B4: C1752V: N1-Sb1 substrate with P2 residue Cys 1752 substituted with Val (protein, UniProt P46531 1733-1812, looked up, variant C1752V)
chain: B2 chain with A20V
modifications: biotinylated AviTag
notes: N1-Sb1 substrate with P2 residue Cys 1752 substituted with Val
With B4 the “reactivity … compared with WT substrate” value (E280A PS1 γ-secretase) was “no effect”, the “reactivity … compared with WT substrate” value (M146L PS1 γ-secretase) was 141.3±17.9% and the “reactivity … compared with WT substrate” value [2] was “no effect”.
